The DeepSol protein solubility set

test: soluble on expression in E. coli; label from the status in PepcDB or PDB records

Sequence	soluble on expression in E. coli
MTEPKKEIIEDENHGISKKIPTDPRQYEKVTEGCRLLVMMASQEEERWAEVISRCRAANGSIKFYVHYIDCNRRLDEWVQSDRLNLASCELPKKGGKKGAHLREENRDSNENEGKKSGRKRKIPLLPMDDLKAESVDPLQAISTMTSGSTPSLRGSMSMVGHSEDAMTRIRNVECIELGRSRIQPWYFAPYPQQLTSLDCIYICEFCLKYLKSKTCLKRHMEKCAMCHPPGNQIYSHDKLSFFEIDGRKNKSYAQNLCLLAKLFLDHKTLYYDTDPFLFYVLTEEDEKGHHIVGYFSKEKESAEEYNVACILVLPPFQKKGYGSLLIEFSYELSKIEQKTGSPEKPLSDLGLLSYRSYWSMAIMKELFAFKRRHPGEDITVQDISQSTSIKREDVVSTLQQLDLYKYYKGSYIIVISDEKRQVYEKRIEAAKKKTRINPAALQWRPKEYGKKRAQIMF	not soluble
MTESAPSAFFTTSTPADHVHEEESSNTGYFENLPENDIHSFFEIDATSEWIKQGNHQRIALQFPDSLLPYSEKVTKLIESRFRSESAKKTFVLADTSYRSCCVDEVAAAHADCTALVHFGEACHSAPTDKIDVKYVLGSMPIFIDQFRMEFQNVADQLTAEHIVLLMDSCFSHEQEKVAAVIKEVLPGNRHVECSLLPSEDVLKQNRQNIYLGREIPSCLRNNQPTDLIFCGFPNSPLLPIWLLSYPSCSTVSHFNPINKTIQHESTRSSRLLRKRLFLVEKLKDADTVGLVVGSVGVDKHREAVKRMREMCKKAGKKIYVISVGKINVPKLSNFSTDIDVFVLLSCPFGVVLDSSDYFRPVVSYFEAEIALNPAKTWAADFGWSAEFAAFLEDKIETEVPDDKAAGDFSLISGKVRVQKTEEEKNGDGPSSVAIYNPGYCNDRTWKGLNDGVSTAEDSTKMGEGRSGIAQGYSGK	not soluble
MTETPMMDDLERVLYNQDDIQKRIRELAAELTEFYEDKNPVMICVLTGAVFFYTDLLKHLDFQLEPDYIICSSYSGTKSTGNLTISKDLKTNIEGRHVLVVEDIIDTGLTMYQLLNNLQMRKPASLKVCTLCDKDIGKKAYDVPIDYCGFVVENRYIIGYGFDFHNKYRNLPVIGILKESVYT	soluble
MTFAWGRGSHGGAGMRIVQITDTHFSPTKAHFNGNWAPLAAWIEQSGADLVIHTGDLSVDGADRDDDIAFCMDLMREISAPMLLVPGNHDVGHLPGSLQPVNAGRLERWRRLVGPDYWMEDAGSWRLIGLDSLLMGFDDAEEEAQFDWLRTVLESRGGRRVALFAHKPLFVDAPGEGDTGYWSVRPAQRQRLYDLIATHDVALFASGHLHRAWQGKYENTSLVWGPSAAFVVGDMERDMPGERLLGAVIHQFSDTVTSEIVAIPGMTAYVLDDVVAEVYPHEAHKARKRVASLEHHHHHH	not soluble
MTFFPEIDIQKTKSNAKRKLREYPRWRRIANDVDTQKVTATYSFEPRQSHGVPSKPVERLALNRVSAEQELDAIEQAVSMILEPERRRILYDKYLAPYKKADKVIYTELCMSESFYYDTLDIALLAFAELYREGVLLVEEGVFS	not soluble
MTFMKLYFFGDDNNKPKLSEHLIIYILSLLDPKSQSVASLVNKDWSRLVQLTRQYLSMLPVIHRIPLFANLGLDVLKLKLMTGGMTNSTVRLRIKNAPEKWVMRIPGIGSSAFITRRDEAHNAKQAEKLGLNVPIAFFDPEDGLQVTRFIEGVHSLDDKALARKEILHEVASMMRRLHKSPPFDNNTLFFERNEELLDLLKRKPFNFPGEIEFVEQQMKNLKEIFSSYHIQQFPCHNDTTPLNFILSENPEIKGSEKIHQIDWEYSSNNDFIWDLVYFMVEAKLNREQQLILLKAYFNTEELSDSLLAWIEVYKPIIEWWITIWSWTQLANGANAVDLSSYEQLGLERYHNTLSHLKSEDYVKALALIEADSHSLTFTGQRPF	not soluble
MTFSLFGDKFTRHSGITLLMEDLNDGLRTPGAIMLGGGNPAQIPEMQDYFQTLLTDMLESGKATDALCNYDGPQGKTELLTLLAGMLREKLGWDIEAQNIALTNGSQSAFFYLFNLFAGRRADGRVKKVLFPLAPEYIGYADAGLEEDLFVSARPNIELLPEGQFKYHVDFEHLHIGEETGMICVSRPTNPTGNVITDEELLKLDALANQHGIPLVIDNAYGVPFPGIIFSEARPLWNPNIVLCMSLSKLGLPGSRCGIIIANEKIITAITNMNGIISLAPGGIGPAMMCEMIKRNDLLRLSETVIKPFYYQRVQETIAIIRRYLPEDRCLIHKPEGAIFLWLWFKDLPITTEQLYQRLKARGVLMVPGHNFFPGLDKPWPHTHQCMRMNYVPEPEKIEAGVKILAEEIERAWAESH	soluble
MTFVPLNPIPLKDRTSMIFLQYGQIDVLDGAFVLIDKTGIRTHIPVGSVACIMLEPGTRVSHAAVRLASTVGTLLVWVGEAGVRVYSSGQPGGARADKLLYQAKLALDDDLRLKVVRKMYELRFREPPPARRSVEQLRGIEGSRVRATYALLAKQYGVKWHGRNYDPKDWEKGDVVNRCISAATSCLYGISEAAILAAGYAPAIGFIHSGKPLSFVYDIADIIKFESVVPKAFEIAARHPAEPDKEVRLACRDIFRSSKLTGKLIPLIEEVLAAGEIEPPQPAPDMLPPAIPEPESLGDSGHRGHG	not soluble
MTGASRPPKSRRSAAAAPSPEGLTLDLERYVPAFITFIANKLSNSATAFYQGNFGVNVTEWRIMSLLAIEPGISAARICQVIGFNKGPVSRTLSDMQSRGLITIRVDPNDARTHSISLTGKGRATHDKVIVAALERERKLMSCLSADEQEVLIDLLRRLHNNLGAVTGETT	not soluble
MTGEIVTVVKGKVRWVEGEQFIGRIEGDKCSVILGEGGISPMKLLLLSVAGCTSYDVVMILKKMREPIKGLEVEIEGVRREEHPRIYKEVTIHYKIYGNVNEKKARRAIELSQEKYCSASAHLKLSGTDVKYTLEVIRDDEPPSQLNK	soluble
MTGITVSDSAARRIAKILDSEPGKTALRVSVEGGGCSGFSYKYDLVDAQTEDDIVIEKLGARVLIDSISVPYMDGSEIDFVDDLMGQSFQIRNPNATASCGCGTSFAILEHHHHHH	soluble
MTGNVLNYYAGGNTARGFHNLYEENLKGLDRLFILKGGPGTGKSSLIKAIGREWIEKGYDIEFLHCSSDNKSVDGVIIPKLKVGIVDGTSPHVIEPKMPGVVEEYINLGIAWDSDKLRKQKLEIERFVSEASKAFQSAYARFKEALVIHDEWEKIYIDNIDFNKANELTNQLIQKLFADKSGRQSLVKHRFLGAATPKGAVDFVPNLTEGLPHRYFIKGRPGSGKSTMLKKLAKAAEEKGFEVEVYHCGFDPNSLDMVIVRELGFAIFDSTAPHEYFPSREGDEIIDMYALIVTPGTDEKYAKEIRDVSIQYKAKMNEAMSFLAKAKSIRDKLERIYIAAMDFSIVDAYKEEIQKEFERIAATVIEKQQ	not soluble
MTGRIVHFEIPFDDGDRARAFYRDAFGWAIAEIPDMDYSMVTTGPVGESGMPDEPGYINGGMMQRGEVTTPVVTVDVESIESALERIESLGGKTVTGRTPVGNMGFAAYFTDSEGNVVGLWETAR	soluble
MTGTGILARPERNHYFSLALAFCSWVRNGYGVFRYSDKELLFLASINGQPAVMADLSGNDADVAQKVSLFLTMNEEPPEKWQVVSPLEHPDNWESIITRLSSADLRRCKLTVGNRSKFTLPAVLFLVAASAGTVFWMTQPEPDVVPTPEEIAARARLQFKKPDPPPELPHPWASQPVISDFLKACADLRKPSPVALEGWKLTGGTCTPETFTLIYERQPGGTIEGFLARSKEIFNVIPDFNLKDGARLASVTRPLPSLPRRDEAVPTPSEQLMRVFTWFQKKQLTPAINEIAIPEPLPGNDGEPAPVQKWKEYQFSLSTPVNPDELFPLFQDTGVRLSNIHFELNGGTFSYSSEGHIYASRLEHHHHHH	not soluble
MTHVCSVILIRRSFDIYHEQQKISLHNESILLLEKNLADDFAFCSPDTRRLDIDELTVCHYLQNIRQLPRNLGLHSKDRLLINQSPPMPLVTAIFDSFNESGVNSPILSNMLYLSCLSMFSHKKELIPLLFNSISTVSGKVERLISFDIAKRWYLRDIAERMYTSESLIKKKLQDENTCFSKILLASRMSMARRLLELRQIPLHTIAEKCGYSSTSYFINTFRQYYGVTPHQFAQHSPGTFS	not soluble
MTIALELQQLKKTYPGGVQALRGIDLQVEAGDFYALLGPNGAGKSTTIGIISSLVNKTSGRVSVFGYDLEKDVVNAKRQLGLVPQEFNFNPFETVQQIVVNQAGYYGVERKEAYIRSEKYLKQLDLWGKRNERARMLSGGMKRRLMIARALMHEPKLLILDEPTAGVDIELRRSMWGFLKDLNDKGTTIILTTHYLEEAEMLCRNIGIIQHGELVENTSMKALLAKLKSETFILDLAPKSPLPKLDGYQYRLVDTATLEVEVLREQGINSVFTQLSEQGIQVLSMRNKANRLEELFVSLVNEKQGDRA	not soluble
MTIATIDIGGTGIKFASLTPDGKILDKTSISTPENLEDLLAWLDQRLSEQDYSGIAMSVPGAVNQETGVIDGFSAVPYIHGFSWYEALSSYQLPVHLENDANCVGLSELLAHPELENAACVVIGTGIGGAMIINGRLHRGRHGLGGEFGYMTTLAPAEKLNNWSQLASTGNMVRYVIEKSGHTDWDGRKIYQEAAAGNILCQEAIERMNRNLAQGLLNIQYLIDPGVISLGGSISQNPDFIQGVKKAVEDFVDAYEEYTVAPVIQACTYHADANLYGALVNWLQEEKQW	soluble
MTIDVWMQHPTQRFLHGDMFASLRRWTGGSIPETDIPIEATVSSMDAGGVTLGLLSAWRGPNGQDLISNDAVAEWVRLYPNRFAGLAAVDLDRPMAAVRELRRRVGEGFVGLRVVPWLWGAPPTDRRYYPLFAECVQSAVPFCTQVGHTGPLRPSETGRPIPYIDQVALDFPELVIVCGHVGYPWTEEMVAVARKHENVYIDTSAYTIKRLPGKLVRFMKTDTGQRKVLFGTNYPMIAHTHALTGLDELGLSDEARRDFLHGNAVRVFKLDPRGKVQT	not soluble
MTIEHGIWPGKIDIYEKNFNTGQKCMRNPFQNPFPESDTARHSIWEMLVSRDIDAFLAADWSMVADDFVEESFIGVDGRRETNPDKWRLTFPSLAVYRDEWLRQARDFAGQSFAEDPREAIFTTTTLEDIEVDGELALARKKFDGGLKKADGTFDVMKWQTVYYCRLHRGRWKICGFTGYLPNPMGSN	soluble
MTIFQFPQDFMWGTATAAYQIEGAYQEDGRGLSIWDTFAHTPGKVFNGDNGNVACDSYHRYEEDIRLMKELGIRTYRFSVSWPRIFPNGDGEVNQEGLDYYHRVVDLLNDNGIEPFCTLYHWDLPQALQDAGGWGNRRTIQAFVQFAETMFREFHGKIQHWLTFNEPWCIAFLSNMLGVHAPGLTNLQTAIDVGHHLLVAHGLSVRRFRELGTSGQIGIAPNVSWAVPYSTSEEDKAACARTISLHSDWFLQPIYQGSYPQFLVDWFAEQGATVPIQDGDMDIIGEPIDMIGINYYSMSVNRFNPEAGFLQSEEINMGLPVTDIGWPVESRGLYEVLHYLQKYGNIDIYITENGACINDEVVNGKVQDDRRISYMQQHLVQVHRTIHDGLHVKGYMAWSLLDNFEWAEGYNMRFGMIHVDFRTQVRTPKESYYWYRNVVSNNWLETRR	soluble
MTIKRVGILGAGKVGIVLAGLALKAGYEVRISGSGSVDKIDLTISTLVPGAIASENAEVVANSDIIILAIPLSRYKNIDPTLLKGKLVIDAMNYWWETDGIREEVLDPTLTSSEQVQNYFKDSTIVKTFNHMGYHNLQEEALPKLEHHHHHH	soluble
MTIRLNDLGQVYLVCGKTDMRQGIDSLAYLVKSQHELDLFSGAVYLFCGGRRDRFKALYWDGQGFWLLYKRFENGKLAWPRNRDEVKCLTAVQVDWLMKGFFISPNIKISKSHDFY	not soluble
